From patent US20240409645A1 (DUALYX, published 2024)
Blank lines part the entries; values can stand above or below the binder they belong to.

Legend:
[1] = molecular target: T1, human interleukin-2 receptor α-chain (human, UniProt P01589 22-240, limits assumed); test: binding ELISA, periplasmic extract 1:5 on coated human IL-2Rα, anti-c-myc detection
T1 construct: Recombinant human IL-2Rα protein, coated on the ELISA plate or amine-coupled to a CM5 chip; also called human IL-2Rα; hu IL-2R
T1 sequence: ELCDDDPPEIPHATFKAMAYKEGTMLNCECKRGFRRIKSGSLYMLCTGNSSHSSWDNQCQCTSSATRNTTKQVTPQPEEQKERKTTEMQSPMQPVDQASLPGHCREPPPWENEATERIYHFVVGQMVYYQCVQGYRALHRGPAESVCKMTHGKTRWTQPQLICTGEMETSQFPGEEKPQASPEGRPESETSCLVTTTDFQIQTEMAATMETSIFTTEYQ
Method: In a binding ELISA, human or mouse IL-2Rα, IL-2Rβ and IL-2Rγ proteins were coated directly on maxisorp microtiter plates overnight at 4° C. Free binding sites were blocked using 4% Marvel in PBS for 1 hour. Next, 1:5 dilution of P.E. in 1% Marvel/PBS were added to wells and incubated for 1 hour. […] Binding specificity was determined based on O.D. at 450 nm values compared to negative controls.

[2] = molecular target: T1, human interleukin-2 receptor α-chain; test: SPR (Biacore 3000) off-rate ranking, periplasmic extract over immobilised human IL-2Rα
Method: SPR was performed to determine dissociation rates using Biacore 3000 instrument (GE Healthcare). Briefly, human and mouse IL-2R proteins were immobilized on carboxylmethyl dextran sensor chip (CM5) at approximately 2500 RUs using amine coupling in acetate buffer (GE Healthcare). The VHH-containing P.E. were loaded with a flow rate of 30 uL/min and the off-rates were measured over a 120s period.

[3] = molecular target: T2, human interleukin-2 receptor α-chain (IL-2Rα; CD25), recombinant protein (human, UniProt P01589 22-240, limits assumed); test: P.E. off-rate SPR
T2 construct: also called huIL2R-a; hIL-2RA
T2 sequence: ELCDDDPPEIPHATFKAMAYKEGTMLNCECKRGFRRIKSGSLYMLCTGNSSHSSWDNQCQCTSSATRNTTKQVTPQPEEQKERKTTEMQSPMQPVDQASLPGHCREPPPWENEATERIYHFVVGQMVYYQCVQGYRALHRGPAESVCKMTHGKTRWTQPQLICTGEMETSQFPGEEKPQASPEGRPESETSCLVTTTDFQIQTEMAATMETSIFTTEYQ
Outline: (§1)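 Dissociation rates of nanobody (VHH) periplasmic extracts were measured across a 120s window on an amine-coupled carboxymethyl dextran surface bearing about 2500 RUs of receptor; injection flow 30 uL/min.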

[4] = molecular target: T3, mouse IL-2Rα, recombinant protein (mouse, UniProt P01590 22-236, limits assumed); test: P.E. off-rate SPR
T3 construct: also called moIL2R-a
T3 sequence (looked up): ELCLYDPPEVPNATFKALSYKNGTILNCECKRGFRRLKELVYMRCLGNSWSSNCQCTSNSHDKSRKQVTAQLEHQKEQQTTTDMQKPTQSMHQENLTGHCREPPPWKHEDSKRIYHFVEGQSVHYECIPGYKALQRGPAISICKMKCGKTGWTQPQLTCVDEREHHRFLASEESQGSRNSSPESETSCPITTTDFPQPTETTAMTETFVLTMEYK
Outline: as §1

[5] = molecular target: T2, human interleukin-2 receptor α-chain …; test: P.E. binding ELISA
Outline: (§2)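 Read-out: OD at 450 nm, specificity called versus negative controls. Receptor chains (human or mouse IL-2Rα, β, γ) were coated directly overnight at 4° C; 4% Marvel/PBS block 1 h; P.E. at 1:5 dilution in 1% Marvel/PBS incubated 1 h.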

[6] = molecular target: T3, mouse IL-2Rα, recombinant protein; test: P.E. binding ELISA
Outline: as §2

[7] = molecular target: T4, mouse IL-2Rγ, recombinant protein (mouse, UniProt P34902 23-263, limits assumed); test: P.E. off-rate SPR
T4 sequence (looked up): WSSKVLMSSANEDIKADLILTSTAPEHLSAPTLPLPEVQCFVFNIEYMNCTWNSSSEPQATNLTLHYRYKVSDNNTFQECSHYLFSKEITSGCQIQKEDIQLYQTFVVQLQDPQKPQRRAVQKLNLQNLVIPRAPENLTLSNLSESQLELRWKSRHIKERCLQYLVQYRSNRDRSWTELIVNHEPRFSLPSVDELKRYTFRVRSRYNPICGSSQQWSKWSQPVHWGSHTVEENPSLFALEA
Outline: as §1

[8] = molecular target: T4, mouse IL-2Rγ, recombinant protein; test: P.E. binding ELISA
Outline: as §2

[9] = molecular target: T5, human common cytokine receptor γ-chain (γc; IL-2Rγ; CD132), recombinant protein (human, UniProt P31785 23-262); test: P.E. off-rate SPR
T5 construct: also called human IL-2R subunit CD132
T5 sequence: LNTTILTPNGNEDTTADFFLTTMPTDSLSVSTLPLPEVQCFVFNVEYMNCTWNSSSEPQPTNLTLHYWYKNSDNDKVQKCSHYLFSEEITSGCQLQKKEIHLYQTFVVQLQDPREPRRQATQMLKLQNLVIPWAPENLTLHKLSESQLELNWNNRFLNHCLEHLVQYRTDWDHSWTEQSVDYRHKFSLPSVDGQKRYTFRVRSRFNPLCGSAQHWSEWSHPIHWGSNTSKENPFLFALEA
Outline: as §1

[10] = molecular target: T5, human common cytokine receptor γ-chain …; test: P.E. binding ELISA
Outline: as §2

[11] = molecular target: T5, human common cytokine receptor γ-chain …; test: ELISA, bivalent VHH-hFc
Outline: (§3)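 Human and cyno receptor subunits coated at 1 μg/mL in PBS pH 7.4 overnight at 4° C, casein-blocked; test antibodies bound 1 h, detected with anti-human IgG Fc-HRP and TMB, A450 (ref 620 nm). EC50 from four-parameter variable-slope nonlinear fit of dose-response binding curves.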

[12] = molecular target: T6, cynomolgus monkey IL-2Rγ/CD132 subunit (cynomolgus monkey, UniProt A0A2K5VGJ6 23-262); test: ELISA, bivalent VHH-hFc
T6 construct: also called Cyno IL-2R subunit
T6 sequence: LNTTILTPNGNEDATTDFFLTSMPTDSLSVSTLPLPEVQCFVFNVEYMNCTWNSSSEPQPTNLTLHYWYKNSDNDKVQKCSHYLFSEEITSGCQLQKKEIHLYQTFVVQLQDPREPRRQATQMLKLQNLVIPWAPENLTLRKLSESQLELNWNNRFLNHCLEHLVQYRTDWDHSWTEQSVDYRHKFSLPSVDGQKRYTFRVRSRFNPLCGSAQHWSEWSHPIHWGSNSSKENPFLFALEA
Outline: as §3

[13] = molecular target: T6, cynomolgus monkey IL-2Rγ/CD132 subunit; test: ELISA, bivalent; EC50 cyno vs human subunit
Outline: as §3

PE binding ELISA (OD450 nm) [1]: 2.27 OD450 | koff [2]: 0.00173 s⁻¹
B1: FJ1427_P035MP05F11 (VHH)
VHH: QVQLVESGGGSVQAGGSLRLSCAASGRTLYSSYGMAWFRQAPGKERDFVGSISRYGTYTSYADSVKDRFTISRDNAKSTVYLQMNNTKPEDTAVYYCAAYTYSGSFYSAVKTHRDEYQYWGQGTQVTVSS
notes: Tested as soluble VHH in a crude periplasmic extract (P.E.); CDR3 family 15; also called Clone nr; 470

PE binding ELISA (OD450 nm) [1]: 2.39 OD450 | koff [2]: 0.00235 s⁻¹
B2: FJ1427_P035MP05D12 (VHH)
VHH: QLQLVESGGGSVQAGGSLRLSCAASGRTLYSSYGMAWFRQAPGKERDFVGSISRYGTYTSYADSVKDRFTISRDNAKSTVYLQMNNTKPEDTAVYYCAAYTYSGSFYSTVKTHRDEYQYWGQGTQVTVSS
notes: Tested as soluble VHH in a crude periplasmic extract (P.E.); CDR3 family 15; also called Clone nr

koff [3]: 0.0012 s⁻¹ | koff [4]: 0.00163 s⁻¹ | OD450 nm [5]: 2.22 OD450 nm | OD450 nm [6]: 0.163 OD450 nm
B3: 11-MP05H04 VHH (periplasmic extract) (VHH)
VHH: QLQLVESGGGLVQAGGSLRLSCAASGLTFEGYAIGWFRQAPGKEREGVSYITGSDGTTYYINSVKGRFTISSDNAKSTVYLQMNTLKPEDTAVYYCAVDRLGSQGRYASAWWRSGDMDLWGKGTQVTVSS
notes: soluble VHH in periplasmic extract

PE binding ELISA (OD450 nm) [1]: 2.4 OD450 | koff [2]: 0.000874 s⁻¹
B4: FJ1427_P035MP05C12 (VHH)
VHH: EVQLVESGGGLVQAGDSLRLSCAASGFNFGWHAMGWFRQAPGKEREFVATITWTGRDTYYADSVRGRFTISKDNAKNTLFLQMSSLRPDDTGVYYCAKARERATWAYSEDDCDYWGQGTQVTVSS
notes: Tested as soluble VHH in a crude periplasmic extract (P.E.); CDR3 family 1; also called Clone nr

PE binding ELISA (OD450 nm) [1]: 2.15 OD450 | koff [2]: 0.000273 s⁻¹
B5: FJ1427_P035MP05E12 (VHH)
VHH: QLQLVESGGGLVQAGDSLRLSCAASGFNFGWHAMGWFRQAPGKEREFVATITWTGRDTYYADSVRGRFTISKDNAKDTLFLQMNSLRPDDTGVYYCAKARERATWAYSEDDCDYWGQGTQVTVSS
notes: as for B4

koff [3]: 0.000222 s⁻¹ | koff [4]: 0.000547 s⁻¹ | OD450 nm [5]: 2.14 OD450 nm | OD450 nm [6]: 0.936 OD450 nm
B6: 12-MP05B12 VHH (periplasmic extract) (VHH)
VHH: QVQLVESGGGLVQAGGSLRLSCAASGFTFDGYAIGWFRQAPGKEREGVSYITGSDGSTYYADSVKGRFTISSNNAKNTVYLHMNSLKPDDAAVYYCAIDRLGSRGAYVPIWWRSSDMDLWGKGTLVTVSS
notes: as for B3

koff [7]: 0.283 s⁻¹ | OD450 nm [8]: 0.495 OD450 nm
B7: 31-MP04E03 VHH (periplasmic extract) (VHH)
VHH: QVQLVESGGGLVQAGGSLRLSCTGYGGAFTGYALGWFRQAPGKEREFVARINWSGSFTYYASSVKGRFTISRDNAKNTMYLQMNNLKPEDTAVYYCAADNPSTLATDYDNWGQGTQVTVSS
notes: as for B3

koff [9]: 0.0088 s⁻¹ | koff [7]: 0.319 s⁻¹ | OD450 nm [10]: 0.782 OD450 nm | OD450 nm [8]: 0.054 OD450 nm
B8: 28-MP04D02 VHH (periplasmic extract) (VHH)
VHH: QVQLVESGGGLVQAGGSLRLSCAASGRTLSRYAMGWFRQAPGKEREFVTANSWGGDTYYADSVQGRFTFSRDNAKNTVYLQMNSLQPEDTAVYYCAAAPTSFATTAYSGSNSYAYWGQGTQVTVSS
notes: as for B3

EC50 [11]: 117 pM | EC50 [12]: 121 pM | Fold change [13]: 1 fold
B9: 36-MP07F02 VHH-hFc, monospecific bivalent (Fc fusion)
chain: QVQLVESGGGLVQAGGSLRLSCAASGRTLSRYAMGWFRQAPGSEREFVAASSWGGDTFYADSVEGRFTFSRDNAKNAVYLQMNSLQPEDTAAYYCAAAPTSFPTTAYSSSNSYAYWGQGTQVTVSS
notes: IgG1 Fc LALA-PG; not shown: human IgG1 CH2 and CH3 domains (Fc)

koff [9]: 0.000333 s⁻¹ | koff [7]: 0.00809 s⁻¹ | OD450 nm [10]: 1.3 OD450 nm | OD450 nm [8]: 3.6 OD450 nm
B10: 34-MP04A12 VHH (periplasmic extract) (VHH)
VHH: QVQLVESGGGLVQAGSSLRLSCAASGRTLSRLAMGWFRQAPGKEREFVAVNSWGGDTFYADSVEGRFTYSRDNAKSAVYLQMNSLQPEDTAVYYCAAAPTSFATTAYSSSNSYAYWGQGAQVTVSS
notes: as for B3

koff [9]: 0.00235 s⁻¹ | koff [7]: 0.0149 s⁻¹ | OD450 nm [10]: 1.31 OD450 nm | OD450 nm [8]: 0.173 OD450 nm
B11: 38-MP07A11 VHH (periplasmic extract) (VHH)
VHH: QVQLVESGGGLVQAGGSLRLSCAASGRSLSRDAMGWFRQAPGKEREFVAVMSWGGDTFYTDSVEGRFTFSRDNAKNAVYLEMNDLQPEDTAVYYCAAAPTSFATTAYSSSNSYSYWGRGTQVTVSS
notes: as for B3

EC50 [11]: 137 pM | EC50 [12]: 141 pM | Fold change [13]: 1 fold
B12: 37-MP07F09 VHH-hFc, monospecific bivalent (Fc fusion)
chain: QVQLVESGGGLVQAGGSLRLSCAASGRTLSRYAMGWFRQAPGKEREYVAIDSWGGDTFYADSVEGRFTFSRDNAKNEVYLQMNSLQPEDTAVYYCAGAPTSFATTAYSSSNSYRYWGQGTQVTVSS
notes: as for B9

koff [9]: 0.00126 s⁻¹ | koff [7]: 0.007 s⁻¹ | OD450 nm [10]: 1.81 OD450 nm | OD450 nm [8]: 1.49 OD450 nm
B13: 37-MP07F09 VHH (periplasmic extract) (VHH)
VHH: QVQLVESGGGLVQAGGSLRLSCAASGRTLSRYAMGWFRQAPGKEREYVAIDSWGGDTFYADSVEGRFTFSRDNAKNEVYLQMNSLQPEDTAVYYCAGAPTSFATTAYSSSNSYRYWGQGTQVTVSS
notes: as for B3

EC50 [11]: 113 pM | EC50 [12]: 133 pM | Fold change [13]: 1.2 fold
B14: 38-MP07A11 VHH-hFc, monospecific bivalent (Fc fusion)
chain: QVQLVESGGGLVQAGGSLRLSCAASGRSLSRDAMGWFRQAPGKEREFVAVMSWGGDTFYTDSVEGRFTFSRDNAKNAVYLEMNDLQPEDTAVYYCAAAPTSFATTAYSSSNSYSYWGRGTQVTVSS
notes: as for B9

koff [3]: 0.000258 s⁻¹ | koff [4]: 0.256 s⁻¹ | OD450 nm [5]: 2.49 OD450 nm | OD450 nm [6]: 0.046 OD450 nm
B15: 4-MP01F04 VHH (periplasmic extract) (VHH)
VHH: QVQLVESGGGLVQAGGSLRLSCAASGGTFRTRNMGWFRRAPGKEREFVAAVSWNVDNKLYADSVKGRFTISRDNGRNMVYLQMNSLKPEDTAVYYCAADNIPLSSDMRPTATEYDYWGQGTQVTVSS
notes: as for B3
